First the molecules themselves.
B1: CPEB3 Ribozyme (parent)
chain: UAACAGGGGGCCACAGCAGAAGCGUUCACGUCGCAGCCCCUGUCAGAUUCUGGUGAAUCUGCGAAUUCUGCUGUAUAUCUC

Our source for the self-cleavage values is the RNAGym collection of RNA variant scans (doi:10.1093/nar/gkz1192).

The data set covers variants of B1. Put plainly: self-cleavage, relative activity (ratio to wild type); higher = more cleavage; in vitro, sequencing. The gist of the method:
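Relative activity was defined as the cleaved/total read fraction for a variant divided by the same fraction for the unmutated ribozyme. CPEB3 self-cleaving ribozyme libraries were made by rounds of error-prone PCR, barcoded, and transcribed in vitro with T7 RNA polymerase for 5 hours at 37°C, and cleavage ran through transcription plus a 15 min DNase I step before EDTA. Illumina sequencing of template-switched reverse transcripts gave the reads, and DNA sequencing mapped the barcodes. Averages come from three batches, using variants with at least 5 reads.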
As for A35U A56G, the self-cleavage is 0.5. Next, A35U A56U: 0.33; A35U A56C: 0.23. On to A35G C40G, for which the self-cleavage is 0.66. A35G C40U: the self-cleavage turned out to be 1.23. A35G C40A: the self-cleavage came out at 0.55. As for G36A U48C, the self-cleavage is 0.19. Regarding A35U U67C, the self-cleavage turned out to be 0.21. With A35U U67A the figure was 0.24; with A35U U67G, 0.35; with G36U A57G, 0.48. For G36A U49C, the self-cleavage was found to be 0.21.

With G36A C44G, the self-cleavage was 0.14. Consider G36C U78C, for which the self-cleavage is 0.14. For the variant A35U C81U, the self-cleavage came to 0.61. In the case of A35U C81G, the self-cleavage is 0.39. As to A35U U74C, the self-cleavage was found to be 0.86. As for A35U U74A, the self-cleavage turned out to be 0.89.

As to A35U G55U, the self-cleavage turned out to be 0.43. On to A35U G55C, for which the self-cleavage was 0.47. As for A35U U60G, the self-cleavage was 0.17.

For the variant A35U U60A, the self-cleavage stood at 0.25. As to A35U U60C, the self-cleavage was determined as 0.24. For G36U U76C, the self-cleavage was found to be 0.2. With G36U U76A, the self-cleavage was 0.2. On to G36A A45U, for which the self-cleavage worked out at 0.27. Next, G36A A45G: 0.21; G36A U76C: 0.28. For G36A U76G, the self-cleavage is 0.4. Next, G36C U80A: 0.12. With G36C U80C the figure was 0.13; with A35U U58C, 0.27. With A35U U58G, the self-cleavage came to 0.15. Consider A35U U58A, for which the self-cleavage came to 0.32. Consider A35U C38U, for which the self-cleavage was determined as 0.47.

Take A35U C38A: the self-cleavage came to 0.21. As to G36U U54C, the self-cleavage was determined as 0.26. For A35U U80C, the self-cleavage came to 0.63. Consider A35U U80G, for which the self-cleavage amounted to 0.65. Next, A35U U80A: 0.58; A35G C37A: 0.86. On to A35G C37G, for which the self-cleavage amounted to 0.89. On to A35U C44U, for which the self-cleavage was 0.16.

As to A35U C44A, the self-cleavage amounted to 0.16. With A35U U72G the figure was 0.54; with A35U U72C, 0.54. Take A35U U72A: the self-cleavage turned out to be 0.31. For A35U G53A, the self-cleavage was 0.51.

Consider A35U G53U, for which the self-cleavage came to 0.76. On to A35U C62A, for which the self-cleavage amounted to 0.13. A35U C62U: the self-cleavage stood at 0.13. With A35U C62G the figure was 0.28. With G36C A47G the figure was 0.15. Regarding G36C A47C, the self-cleavage stood at 0.13. In the case of A35U U48C, the self-cleavage turned out to be 0.32. As to A35U U48G, the self-cleavage was 0.26. With A35U U48A the figure was 0.32; with A35U G52A, 0.54; with A35U G52C, 0.44. Next, A35U G52U: 0.72; G36C U69C: 0.11.

On to A35U G36A, for which the self-cleavage was 0.19. Consider A35U G36U, for which the self-cleavage was determined as 0.1.

Turning to G36A U69C, the self-cleavage stood at 0.27. For G36A U69A, the self-cleavage came out at 0.32. In the case of A35G U76C, the self-cleavage amounted to 1.29. As to A35G U76A, the self-cleavage is 1.33. Turning to A35G U76G, the self-cleavage worked out at 1.49. With G36U U78C, the self-cleavage was determined as 0.17.

Turning to G36U U78A, the self-cleavage was determined as 0.43. With G36U A75G the figure was 0.11; with G36A A64U, 0.14.

As for G36A A64G, the self-cleavage came out at 0.15. With G36C C62U the figure was 0.15. With A35G C50U the figure was 1.35.

Regarding A35G C50A, the self-cleavage came to 1.1. With A35G U48A the figure was 1.14; with A35G U48C, 1.21. As for A35G U49C, the self-cleavage was 1.05. For the variant A35G U49A, the self-cleavage is 1.23. For the variant G36A A56G, the self-cleavage is 0.19. Next, G36U U48C: 0.17; G36A U51G: 0.19; G36A U51A: 0.4. Take G36A U51C: the self-cleavage turned out to be 0.2. Regarding G36A U60A, the self-cleavage was 0.18. Next, G36A U60C: 0.13. Regarding G36U U51G, the self-cleavage is 0.15. Take A35G G73A: the self-cleavage is 1.46. With A35G C68A the figure was 1.19.

For G36U G63U, the self-cleavage came out at 0.12. For the variant G36U G63A, the self-cleavage was 0.12. Next, G36C U74C: 0.2; A35G U54C: 1.29; A35G U54G: 1.32. A35G U54A: the self-cleavage is 1.28. For A35G U41C, the self-cleavage came out at 1.23. Next, A35G U41A: 0.44; A35G U41G: 0.33; A35G G63A: 1.29. A35G G63C: the self-cleavage was found to be 1.27. Next, A35G G63U: 1.2; G36A C39G: 0.16. In the case of G36A U43C, the self-cleavage was 0.29.

G36C U60C: the self-cleavage stood at 0.13. Next, G36C U60A: 0.08. On to G36A G61C, for which the self-cleavage worked out at 0.16.

On to A35U C40G, for which the self-cleavage is 0.17. As for A35U C40A, the self-cleavage turned out to be 0.09. As to A35U C40U, the self-cleavage came to 0.37. On to G36A U54C, for which the self-cleavage stood at 0.25. On to G36A U54A, for which the self-cleavage was 0.31.

Consider A35G U80C, for which the self-cleavage stood at 1.3. Turning to A35G U80G, the self-cleavage amounted to 1.37. Consider A35G U80A, for which the self-cleavage worked out at 1.32. With A35U U51C, the self-cleavage worked out at 0.46. Consider A35U U51A, for which the self-cleavage amounted to 0.56. Next, A35U U51G: 0.47; A35G G36C: 0.29. A35G G36A: the self-cleavage was determined as 0.92. Regarding A35G G36U, the self-cleavage is 0.5. In the case of G36U C37U, the self-cleavage was 0.1. As to G36A C71U, the self-cleavage was found to be 0.15.

With A35G C39G, the self-cleavage was 0.59.

Consider A35G C39U, for which the self-cleavage is 1.21.

Take A35G C39A: the self-cleavage was found to be 0.95.

In the case of G36C G55A, the self-cleavage is 0.12. Next, A35U C39A: 0.27. Next, A35U C39U: 0.49; G36A C59U: 0.31; A35G G42C: 0.16. Take A35G G42A: the self-cleavage turned out to be 0.5. As for G36U U72C, the self-cleavage was found to be 0.13. Regarding A35U U78C, the self-cleavage turned out to be 0.52. With A35U U78A, the self-cleavage worked out at 0.54. Consider A35U G46U, for which the self-cleavage worked out at 0.19. With A35U G46A the figure was 0.16.

In the case of G36C A65G, the self-cleavage came to 0.13. With G36A C50A the figure was 0.25; with G36U G42A, 0.21.

Consider G36U U74C, for which the self-cleavage was found to be 0.31. Consider G36U C71U, for which the self-cleavage is 0.1. With A35U A65C the figure was 0.45; with A35U A65U, 0.26.

For A35U A65G, the self-cleavage was 0.26. Turning to G36U A45G, the self-cleavage amounted to 0.22. Take G36U A45U: the self-cleavage is 0.19.

G36A U41A: the self-cleavage stood at 0.18. Next, G36A U41C: 0.56.

Take A35G G61A: the self-cleavage was 1.11. Regarding A35G G61U, the self-cleavage was 1.23. With G36A, the self-cleavage worked out at 0.29. Next, G36C: 0.31; G36U: 0.24; G36C U49A: 0.17.

Turning to G36U C59U, the self-cleavage came to 0.16. In the case of A35G U51C, the self-cleavage stood at 1.27. Consider A35G U51G, for which the self-cleavage came to 1.28. As to A35G U51A, the self-cleavage was determined as 1.32. In the case of A35G A56U, the self-cleavage amounted to 1.24. As for A35G C79A, the self-cleavage was determined as 1.3.

Consider A35G C79U, for which the self-cleavage worked out at 1.51. In the case of A35G A65C, the self-cleavage turned out to be 0.67. For A35G A65G, the self-cleavage amounted to 1.19. With A35G A65U the figure was 0.96; with G36A U80C, 0.34. With G36A U80A the figure was 0.13.
